One assay has as its target DcR3 (TNFRSF6B) (UniProt O95407). The assay can be described thus: ELISA; TL1A variants on DcR3; who was immobilised is not told for DcR3; triplicate.
Assay [1] has as its target Recombinant DR3-Fc (UniProt Q93038). In words: ELISA; DR3-Fc immobilised non-specifically on Maxisorp plates (overnight, 4 °C), casein block; TL1A added in 3-fold dilutions, overnight 4 °C; bound TL1A detected with polyclonal rabbit anti-human TL1A-biotin and streptavidin-HRP; concentrations normalised to TL1A trimers; triplicate. For orientation: In an ELISA, binding on a coated surface is turned into a signal by an enzyme label.

The target of a further assay is DcR3 (UniProt O95407). The assay can be described thus: ELISA; receptor (DR3-Fc; DcR3) immobilised on Maxisorp plates, TL1A variant titrated in 3-fold dilutions, overnight 4 °C, detected with anti-human TL1A-biotin and streptavidin-HRP; concentrations normalised to TL1A trimer; triplicate.
Assay [2] concerns the target HSA-scTL1A (TL1W15) (human) (UniProt O95150). The assay can be described thus: ELISA; reversed format: TL1A molecules immobilised, DR3 titrated.
The target of assay [3] is Fc-scTL1A (TL1W14) (human) (UniProt O95150). Described as above.
Target sequence in this assay (O95150 other isoform, or with tags, fused parts or gaps): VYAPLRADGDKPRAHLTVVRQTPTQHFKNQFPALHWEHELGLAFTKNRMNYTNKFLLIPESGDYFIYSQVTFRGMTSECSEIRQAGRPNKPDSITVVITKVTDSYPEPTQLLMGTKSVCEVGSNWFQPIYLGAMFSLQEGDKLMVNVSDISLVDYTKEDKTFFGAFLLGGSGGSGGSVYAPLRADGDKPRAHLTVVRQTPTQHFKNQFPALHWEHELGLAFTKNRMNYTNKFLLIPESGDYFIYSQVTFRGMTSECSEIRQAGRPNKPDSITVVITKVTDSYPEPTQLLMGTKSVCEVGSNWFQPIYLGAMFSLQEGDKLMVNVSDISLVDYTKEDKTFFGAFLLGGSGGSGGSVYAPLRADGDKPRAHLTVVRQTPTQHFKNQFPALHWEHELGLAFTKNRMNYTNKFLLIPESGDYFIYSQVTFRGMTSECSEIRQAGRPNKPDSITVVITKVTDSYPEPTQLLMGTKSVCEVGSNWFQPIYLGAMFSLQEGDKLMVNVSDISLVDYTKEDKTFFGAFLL
In assay [4] the target is Recombinant DR3-Fc (UniProt Q93038). The assay can be described thus: ELISA; receptor (DR3-Fc; DcR3) immobilised on Maxisorp plates, TL1A variant titrated in 3-fold dilutions, overnight 4 °C, detected with anti-human TL1A-biotin and streptavidin-HRP; concentrations normalised to TL1A trimer; triplicate.
In assay [5] the target is Fc-scTL1A (TL1W14) (human) (UniProt O95150). The assay can be described thus: SEC-MALS; Waters BEH SEC column, 25 °C, PBS pH 7.4, 5 µg of sample. (In general: Size exclusion chromatography separates by hydrodynamic size, large species first.)

Several values for one entry are separate records, joined by “and”; a condition that tells them apart may be missing. Identical values can stand only once.

Recombinant DR3-Fc, sequence (Q93038 25-199): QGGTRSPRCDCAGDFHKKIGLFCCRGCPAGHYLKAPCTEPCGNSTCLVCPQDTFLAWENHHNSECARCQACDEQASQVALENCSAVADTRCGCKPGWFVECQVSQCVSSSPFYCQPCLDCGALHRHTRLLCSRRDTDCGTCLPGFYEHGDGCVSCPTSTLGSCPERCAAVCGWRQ
DcR3 (TNFRSF6B), sequence (O95407 30-300): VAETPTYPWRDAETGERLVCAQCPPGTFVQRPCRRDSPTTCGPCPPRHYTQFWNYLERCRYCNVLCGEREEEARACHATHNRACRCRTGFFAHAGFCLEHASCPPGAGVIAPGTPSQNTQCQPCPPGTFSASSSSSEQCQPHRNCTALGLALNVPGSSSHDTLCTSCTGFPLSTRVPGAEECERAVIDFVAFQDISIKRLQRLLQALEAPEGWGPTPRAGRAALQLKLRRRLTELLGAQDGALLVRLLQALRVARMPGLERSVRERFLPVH
DcR3, sequence (O95407 30-300): as above
HSA-scTL1A (TL1W15) (human), sequence (O95150 other isoform, or with tags, fused parts or gaps): as the sequence (O95150 other isoform, or with tags, fused parts or gaps) above

Turning to “TL1W45 (E190F) (from UniProt O95150 1-251) (ligand)”, the results for the EC50 with DcR3 (TNFRSF6B) and in the assay with Recombinant DR3-Fc [1] were 21.2 nM and 31.4 nM, respectively.

For the substance “TL1W122 (N207F) (from UniProt O95150 1-251) (ligand)”, the results for the EC50 with DcR3 (TNFRSF6B), with DcR3 and in the assay with Recombinant DR3-Fc [1] were 58.5 nM, 10.6 nM and 30.2 nM, respectively.

Turning to Fc-His-TL1A (TL1W61) (complex), the EC50 (usually the concentration needed to bring the measured effect to its halfway point) with Recombinant DR3-Fc [1] was 10.2 nM.

On to “Recombinant DR3-Fc (from UniProt Q93038 25-199) (Fc fusion)”, for which the EC50 was 3.8 nM in assay [2] and 1.5 nM in assay [3].

Turning to “TL1W95 (Q167A) (from UniProt O95150 1-251) (ligand)”, the results for the EC50 with DcR3 (TNFRSF6B), with DcR3 and with Recombinant DR3-Fc [1] were 176 nM, 32 nM and 17.1 nM, respectively.

For the substance “TL1W109 (S187L) (from UniProt O95150 1-251) (ligand)”, the EC50 was 85.5 nM with DcR3 (TNFRSF6B), 15.5 nM with DcR3 and 17.7 nM with Recombinant DR3-Fc [1].

Regarding “TL1W80 (K111A) (from UniProt O95150 1-251) (ligand)”, the values for the EC50 in the assay with DcR3 (TNFRSF6B), with DcR3 and in the assay with Recombinant DR3-Fc [1] were 89.8 nM, 16.3 nM and 30 nM, respectively.

Consider “TL1W38 (L123K) (from UniProt O95150 1-251) (ligand)”, for which the EC50 worked out at 24.7 nM in the assay with DcR3 (TNFRSF6B), 29.5 nM with Recombinant DR3-Fc [4] and 29.4 nM in the assay with Recombinant DR3-Fc [1].

As to “Fc-scTL1A (TL1W14) (from UniProt O95150 84-251; O95150 84-251; O95150 84-251) (Fc fusion)”, the EC50 was determined as 6.5 nM in the assay with DcR3 (TNFRSF6B), 26.2 nM with Recombinant DR3-Fc [4] and 9.7 nM with Recombinant DR3-Fc [1]. Moreover, the stoichiometry N (commonly a count of units in the complex or per binding partner) in assay [5] was 2 and 4. This substance had an IFNg in C57BL/6 mice 6 h after Fc-scTL1A (i.p.) with anti-CD3 antibody (i.v.) with mouse DR3 (mouse) of 750 pg/mL.

For the substance “TL1W124 (N207k) (from UniProt O95150 1-251) (ligand)”, the EC50 in the assay with DcR3 is 15.4 nM; with Recombinant DR3-Fc [4] it was 110 nM.

For “His-scTL1A TL1W19 (from UniProt O95150 84-251; O95150 84-251; O95150 84-251) (ligand)”, in the assay with Recombinant DR3-Fc [1], the EC50 was determined as 27.3 nM.

For the substance “TL1W97 (K173S) (from UniProt O95150 1-251) (ligand)”, the EC50 with DcR3 came out at 6.7 nM; with Recombinant DR3-Fc [4], 131 nM.

“TL1W92 (M158Y) (from UniProt O95150 1-251) (ligand)”: the EC50 with DcR3 (TNFRSF6B) turned out to be 69.2 nM; in the assay with DcR3, 12.6 nM; in the assay with Recombinant DR3-Fc [1] it was 16.6 nM.

Turning to “TL1W117 (T192E) (from UniProt O95150 1-251) (ligand)”, the concentration giving a half-maximal response (EC50) with DcR3 is 12 nM; in the assay with Recombinant DR3-Fc [4] it was 113 nM.

Regarding “TL1W119 (S206F) (from UniProt O95150 1-251) (ligand)”, the results for the EC50 with DcR3 and with Recombinant DR3-Fc [4] were 8.1 nM and 87.5 nM, respectively.

As to “TL1W42 (F114A) (from UniProt O95150 1-251) (ligand)”, the results for the concentration giving a half-maximal response (EC50) with DcR3 and with Recombinant DR3-Fc [4] were 11.4 nM and 77.7 nM, respectively.

In the case of “HSA-scTL1A (TL1W15) (from UniProt O95150 84-251; O95150 84-251; O95150 84-251) (ligand)”, the EC50 with Recombinant DR3-Fc [1] was determined as 29.2 nM.

For “TL1W115 (T192F) (from UniProt O95150 1-251) (ligand)”, the EC50 with DcR3 was 10.6 nM; in the assay with Recombinant DR3-Fc [4] it was 14.2 nM.

As for “TL1W78 (R103H) (from UniProt O95150 1-251) (ligand)”, the EC50 was 8.1 nM in the assay with DcR3 and 77.2 nM with Recombinant DR3-Fc [4].
